Data published in the nanobody polyreactivity screen of Harvey et al. (2022).

Experiment: yeast display, Sf9 membrane polyspecificity reagent, FACS + sequencing; frameworks hold sequencing errors
Procedure, shortened: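 Sorting gates, low and high (top ~1%), were placed on anti-HA fluorescence to track expression and on streptavidin fluorescence to track reagent binding. A clone's polyreactivity label is taken from the gate it came out of. The reagent was 10% biotinylated, detergent-solubilized Sf9 membrane, applied for 1 hour at 4 °C to galactose-induced yeast display cells.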

Row | Sequence | polyreactivity (PSR sort gate)
1 | QVQLVESGGGLVQAGGSLRLSCAASGFIFGYNAMGWYRQAPGKERELVAAIDWSGTSTYYADSVKGRFTISRDNAKNTVYLQMNSLKPEDTAVYYCAADTSTWAHTRGYDYWGQGTQVTVSS | high polyreactivity
2 | QVQLVESAGGLVQAGGSLRLSCAASGNTFRYYAIGWYRQAPGKERELVAVITTRGGSTNYADSVKGRFTISRDNAKNTVYLQMNRLKPEVTAGYYCNTLRHYGPGYDSGGQGTQVTVSS | low polyreactivity
3 | QVQLVESGGGLVQAGGSLRLSCAASGSIFSANAMGWYRQAPGKERELVAAISDGGAATYYADSVKGRFTISRDNAKHTVYLQMNSLKPEDTAVYYCIADDAFWTVVDGNWRYEYDYWGQGTQVTVSS | low polyreactivity
4 | QVQLVESGGGLVQAGGRLRLSSAASGSIFDLYAMGWYRQAPGKERELVASIRYSGGRTYYADSVKGRFTISRDNAKNSVYLQMNSLNPEDTAFYYCNRDGGYTFIMDYWGQGTQVTVSS | low polyreactivity
5 | QVQLVESGGGLVQAGGSLRLSCAASGSIFGRYAMGWYRQAPGKEMELVAAISTGDSTYYADSVKGRFTISRDNAKNTVYLQMNSLKPEDTAVYYCNRRGRRGYDYWGQGTQVTVSS | high polyreactivity
6 | QVQLVESGGGLVQAGGSLRLSCAASAFIYSSYAMGWYRQAPGKEMELVAAISYSGGSTYYADSVKGRFTISRDTAKNTVYLQMNRLKPEDTAVYYCAAELQIKIGFYTGEYEYYYWGQGTQVTVSS | high polyreactivity
7 | QVQLVESGGGLVQAGGSLRLTCAASGYIQPKNTMGWYRQAPGKERELVAAISWSGGSTFYADSVKGRFTISRDNAKNTVYLKMNSLKPVDTAVYYCAADRSWSWYYRYDYWGQGTQVTLSS | low polyreactivity
8 | QVQLVESGGGLVQAGGSLRLICAASGRIFRGYAMGWYRQAPGKERELVAAISGRGGRTNYADSVKGRFTISRDNAKNTVYLQMNSLKPEDTAVYYCATVPYTASRYEYWGQGTQVTVSS | high polyreactivity
9 | QVQLVESGGGFVQAGGSLRLSCAACGITFNPNAMGWYRQAPGKERELVAAITANGGNTYYADSVKGRFTISRDNAKNTVYLQMNSLKPEDTAVYYCARRTRRSAGYGEYYYWGQGTQVTVSS | high polyreactivity
10 | QVQLVESGGGLVQAGGSLRLSCAASGITFKFNAMGWYRQAPGKERELVAAISVRGGRTYYADSVKGRFTISRDNAKNTVYLQMNSLKPEDTAVYYCAATDWFYSYYLGYGYGYWGQGTQVTVSS | high polyreactivity
11 | QVQLVESGGGLVQAGGSLRLSCAASGSIFYGNTMGWYRQAPGKERELVAAITWSGDSTYYADSVKGRFTISRDIAKNTVYLQMISLKPEDTALYYCNADQTGVYYAGEGNHWGQGTQVSVSS | low polyreactivity
12 | QVQLVESGGGLVQAGGSLRLSCAASGSIFDYYAMGWYRQAPGKETELVAAITYGGGSTYYADSVKGRFTISRDNAKNTVYLQMNSLKPEDTAVYYCNALGENYQFNYWGQGTQVTVSS | low polyreactivity
13 | QVHLVESGGGLVQAGGSLRLSCAASGSTIYYNAMGRYRQAHGKERELVPRISRSGGSTYADSVKGRFTISRDNANNTVYLQMNSLKPEDTAVYYCNADPWWRFDYWGQGTQVTVSS | low polyreactivity
14 | QVQLVESGGGLVQAGGSLRLICAASGSIFRFYAMGWYRQAPGTERELVAAISKTGGRTYYADSVKGRFTISRDNAKNTFYLQMNSLKPEDTAVYYCAASIREGFYWGQGTQVTVSS | high polyreactivity
15 | QVQLVESGGGLVQAGGSLRLSCAASGSIFGYNVMGWYRQAPGKERELVAAITVNGGRTYYADSVKGRFTISRDNAKNTVYLQINSLKAEDTAVYYCAARVTGTQRSGYYWGQGTQVTVSS | high polyreactivity
16 | QVQHVDSGGGLVQAGGSLSLSCAASGSIFWPNTMGWYRQARGKERELVATISSGADTSYADSVKGRFTISRDNAKNTVYLQMNSLKPADTAVYYCAIRITVDDDHPRAQTFNYCGQGTQVTVSS | low polyreactivity
17 | QVQLVESGGGLVQAGGSLRLSCAASGSIFRYYAMGWYRQAPGKERELVASISSGAGSTYYADSVKGRFTISRDNAKNTVYLQMNSLKPEDTAVYYCAARPGYSAFYYWGQGTQVTVSS | high polyreactivity
18 | QVQLVESGGGLVQAGGSLRLSCAASGSTFGTYAMGWYRQAPGKERELVAAISSGDSTTYADSVKGRFTISRDNAKNTVYLQMNSLKPEDTAVYYCAARTFLMRNGGYNYWGQGTQVTVSS | low polyreactivity
19 | QVQLVESGGGLVQAGGSLRLSCAASGFTLSASAMGWYRQAPGKERELVAGITYTGGRTYYADSVKGRFTISRDNAKNTVYFQMNSLKPEVTAVYYCNKAWSGYYKYGYWGQGTQVSVSS | low polyreactivity
20 | QVQLVESGGGLVQAGGSLRLSCAASGITFKYYAMGWYRQAPGKERELVAAISRGGGSTYYADSVKGRFTISRDNAKNTVYLQMNSLKPEDTAVYYCNAVFYSFIQSDYWGQGTQVTVSS | high polyreactivity
21 | QVQLVESGGGLVQAGGSLRLSCAASGRTLRLYAMGWSRQAPGKERELVAAISSRGRTYYADSVKGRFTISRDNAKNTVYLQMNSLKPEDTAVYYCNTAQFLREDYWGQGTQVTVSS | high polyreactivity
22 | QVQLVESCGGLVQAGGSLRLSCASSGLTFSRYAMGWSRQAPGKERELVAVISRSGGSTYYADSVKGRFTISRDNAKTTVYLHMNSLKPEDTAVYYCAVRAYIKMDYWGQGTQVTVSS | high polyreactivity

Row | Sequence | polyreactivity (PSR sort gate)
23 | QVQLHESGGGLVQAGGSLRQSCAASGTISYAGPMGWYRKAPGKEREFVAGIGVGSNTNYADSVKGRYTIIRDNAKNTVYLQMNSLKPEDTAVNYCAVGGYAPLGRPYWGLGTQVTVSS | low polyreactivity
24 | QVQLVESGGGLVQAGGSLRLSCAASGRTFGSNAMGWYRQAPGKERELVAAISLRGGRTYYADSVKGRFTISRDNAKNTVYLQMNSLKPEDTAVYYCNAVHYLYGARSRLTYDYWGQGTQVTVSS | high polyreactivity
25 | QVQLVESGGCLVQAGGSLRLSCAGSGSIFDGYAMGWYRQAPGKERELVADINNGADTYYADSVKGRFTISRDKAKNTVYLQMNTLKTEDTAVYYCAARYGTDTDIQNVARYDYWGQGTQVTVSS | low polyreactivity
26 | QVQLVESGGGLVQAGGRLRLICAASASNFAGYDKGWYRQAPGKERELVAAITSGGDTYYADSVKGRFTISRDNAKNTGYLQMNSLKPEDTAVYYCNKDYILARYGGGRDYWGQGTQVTVSS | low polyreactivity
27 | QVQLVESGGGLVQSGGSLRLSCAASGRTFYYYTMGWYRPAPGKVRELVAAIYRVGSTYYADSVKGRFTISRDNAKNTVYLQMNSLKPEDTADYYCNAVLRFGWYWVDYWGQGTQVTVSS | high polyreactivity
28 | QVQLVESGGGLVQAGGSLSLSCAASGFTFFYNAMGWYRQAPGKERELVASITVSTSGTDYADSVKGRFTISLDNAKNTVYLQMNSLKPEDTAVYYCATDQVLVYSDLQDTAYYWGQGTQVTVSS | low polyreactivity
29 | QVQLVESGGGLVQAGGSLRISCAASGSIFGYYVMGWYRQAPGKERELVAAITGSVGDTYYADSVKGRFTISRDNAKNTVYLQMNSLKPVDTAVYYCNASNISPFRLLRSPMDYCGQGTQVTVSS | low polyreactivity
30 | QVQLVESGGGLVQAGGSLRLSSAATGFTFDKYAMGWYRQAPGKERELVAASSGSGGTTYYADSVKGRFTISRDNAKNTVYLQMNSLKPEDTAVYYCATRLYSIYSYGYWGHGTQVTVSS | high polyreactivity
31 | QVQLVESGGGLVQAGGSLRLSCAATGRIFGQNAMGWYRQAPGKERELVAAINWSVGSTYYADSVKGRFTISRDNAKNTVYLQMNSLKPEDTGVYYCAAGNLYYAEYDYWGQGTQVTVSS | low polyreactivity
32 | QVQLVESGGGLVQAGGSLRLSCAASGSLFEWYAMGWSRQAPGKEREFVADITYNGGSTYYADSVKGRFTISRDNAKNTVYLHMNSLKPEDTAVYYCAADYFVQVPDYYYPSEYGYWGQGTQVTVSS | low polyreactivity
33 | QVQLVESGGGLVQAGGSLRLSCAASGRIFADNAMGWYRQAPGKERELVADITYSGGSTYYADSVKGRFTISRDSAKNTVYLQMNSLKPEDTAVYYCAKQGVDYWGQGTQVTVSS | low polyreactivity
34 | QVQLLESGGGLVQAGGSLRLSCAASGRIFWNNAMGWYRQAPGKERELVAVISTRGGRTYYADSVKGRFTISRDNANNTVNLQMNSLKPEDTAVYYCAAEFLNKAVGGVTSIYDSWGQGTQVTVSS | low polyreactivity
35 | QVQLVESVGGVVQAGGSLRLSCAASGFTFKYYDMGWYRQAPGKERELVAAISRRGGSTSYADSVKGRFTISRDNAKNTVYLQMNSLKPEDTAVYYCAADSSFERSSDYWGHGTQVTVSS | high polyreactivity
36 | QVQLVESGGGLVQAGGSLRLSCAASGFTFWYYAMGWYRQAPGKERELVATISRGGGSTYYADSVKGRFTISRDNAKNTVYLQMNSLKPEDTEVYYCNAVRVHAYSTGEYGYWGQGTQVTVSS | high polyreactivity
37 | QVQLVESGGGLVQAGGSLRLSCAASGRIFVDNAMGWYRQAPGKERELVAAITRGGSTYADSVKGRFTISRDNAKNTVYLQMNSLKPEDTAVYYCAADLWSVPFTVYTFGIFYYWGQGTQVTVSS | low polyreactivity
38 | QVQLVESGVGLVQAVGSLRLSCAASGSILITNAMGWYRQAPGKERELVAAISSGGSTYYADSVKGRFTISRDNAKNTVYLQMNSLKPEDTAVYYFAADQLKVGREYVEYDYWGQGTQVTVSS | low polyreactivity
39 | QVQLVESVGVLDQAGGSLRLSCAASGFTFVRYAMGWYRQAPGKERELVAAISGSGGRTYYADSVKGRFTISRDTAKNTVYLQLNSLKPEDTAVYYCAAVYLVTRGARYEYWGQGTQVTVSS | high polyreactivity
40 | QVQLVESGGGLVQAGGSLRLSCAASGSTFGAYDMGWYRQAPGKERELVAVISSRDGSTYYADSVKGRFTISRDNAKNTVYLQMNSLKPEDTAVYYCAADYPVPYNGGDGSWGQGTQVTVSS | low polyreactivity
41 | QVQLVESGGGLVQAGGSLRLSCAASGSIFHIYMGGYRQAPGKERELVASMSYRGGTTYYADSVKGRFTISRDNAKNTVYLQKNSLKPEDTAVYYCNVHRDFYHYGRYGHMDYWGQGC | low polyreactivity
42 | QVQLVESGGGLDQAGGSLRLSCAASGFIFRAYAMGLYRQAPGKERELVAAISWGGGSTYYADSVKGRFTISRDNAKNTVYLQMNSLKPEDTAVYYCAAEYEAYAYEYWGQGTQVTVSS | high polyreactivity
43 | QVQLVESGGGLVPAGGSLRLRCAASGYIFRQNAMGWYRQAPGKERELVAVITARGGSTYYADSVKGRFTISRDNEKNTVYLQMNSLKPEDTAVYYCNARYYRRQYRGGAYWGQGTQVTVSS | low polyreactivity
